Measured values published in PMC4942575, “Plastid-nucleus communication involves calcium-modulated MAPK signalling” (Nature Communications, 2016).

Columns and labels:
GST-MPK3 = biological target: T1, GST-MPK3 (Arabidopsis, UniProt Q39023 1-370); test: pull-down; GST or GST-MPK3/MPK6 immobilised on glutathione beads, 4 μg His-tagged ABI4, 4 °C for 4 h; washed with 50 mM Tris-HCl pH 7.4, 100 mM NaCl, 1 mM EDTA, 0.5% Nonidet P-40; anti-His immunoblot; details: both partners purified
T1 construct: MPK3, Arabidopsis, full length, in PGEX5X-1; also called GST-tagged MPK3
T1 sequence (looked up): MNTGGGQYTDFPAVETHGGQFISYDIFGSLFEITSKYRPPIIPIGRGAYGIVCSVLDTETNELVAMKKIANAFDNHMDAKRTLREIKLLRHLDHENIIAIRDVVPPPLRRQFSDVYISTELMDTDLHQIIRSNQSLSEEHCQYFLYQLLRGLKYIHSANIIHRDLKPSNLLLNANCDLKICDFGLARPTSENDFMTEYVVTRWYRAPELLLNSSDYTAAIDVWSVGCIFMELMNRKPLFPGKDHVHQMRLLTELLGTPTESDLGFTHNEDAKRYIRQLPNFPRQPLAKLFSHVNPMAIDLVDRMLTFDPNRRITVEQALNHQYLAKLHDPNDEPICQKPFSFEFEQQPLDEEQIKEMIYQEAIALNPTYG

GST-MPK6 = biological target: T2, GST-MPK6 (Arabidopsis, UniProt Q39026 1-395); test: as above; details: both partners purified
T2 construct: MPK6, Arabidopsis, full length, in PGEX5X-1; also called GST-tagged MPK6
T2 sequence (Q39026 whole entry): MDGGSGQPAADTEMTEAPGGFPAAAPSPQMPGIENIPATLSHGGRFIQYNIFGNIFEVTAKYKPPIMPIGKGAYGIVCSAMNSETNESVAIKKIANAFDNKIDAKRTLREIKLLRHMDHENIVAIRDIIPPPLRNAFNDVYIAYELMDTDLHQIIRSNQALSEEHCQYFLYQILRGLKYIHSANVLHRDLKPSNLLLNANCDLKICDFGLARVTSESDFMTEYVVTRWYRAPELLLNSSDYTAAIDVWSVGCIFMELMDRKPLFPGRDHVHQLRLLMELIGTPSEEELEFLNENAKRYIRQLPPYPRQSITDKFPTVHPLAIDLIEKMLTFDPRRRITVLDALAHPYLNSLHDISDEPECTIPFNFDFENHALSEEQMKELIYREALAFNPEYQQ

B1: His-tagged ABI4 (natural protein)
chain: not shown
notes: ABI4, Arabidopsis; the ABI4 cDNA was inserted into the pCold vector; The pull-down methods name only 'recombinant His-tagged ABI4 protein'; also called recombinant ABI4
- binding result (GST-MPK3): binds
- binding result (GST-MPK6): binds
